Measurements from publication PMC4282981 (Journal of immunology (Baltimore, Md. : 1950), 2014).

Target: Endogenous SHP-1 (human (endogenous in YTS), UniProt P29350 1-595)
Experiment: co-IP

Endogenous SHP-1, sequence (P29350 whole entry): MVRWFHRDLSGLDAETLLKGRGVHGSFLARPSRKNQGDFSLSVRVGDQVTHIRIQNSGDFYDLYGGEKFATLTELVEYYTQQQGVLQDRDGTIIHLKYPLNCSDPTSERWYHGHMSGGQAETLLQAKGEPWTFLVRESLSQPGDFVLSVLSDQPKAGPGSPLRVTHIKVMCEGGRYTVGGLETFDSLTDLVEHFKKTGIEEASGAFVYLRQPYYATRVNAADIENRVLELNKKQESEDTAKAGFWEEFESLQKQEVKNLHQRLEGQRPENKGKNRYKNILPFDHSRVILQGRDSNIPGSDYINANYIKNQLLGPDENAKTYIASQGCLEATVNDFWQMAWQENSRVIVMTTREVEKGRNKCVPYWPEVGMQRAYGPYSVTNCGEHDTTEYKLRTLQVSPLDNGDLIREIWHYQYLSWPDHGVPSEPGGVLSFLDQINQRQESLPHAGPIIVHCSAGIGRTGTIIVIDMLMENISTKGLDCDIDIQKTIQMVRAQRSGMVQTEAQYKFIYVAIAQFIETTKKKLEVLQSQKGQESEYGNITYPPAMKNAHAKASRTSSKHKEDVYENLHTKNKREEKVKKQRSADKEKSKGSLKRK

fold association against 2DL1-WT: ~4 fold
B1: KIR2DL1 H36A mutant tagged with Venus at the C-terminus (receptor, UniProt P43626 22-348, looked up)
chain: HEGVHRKPSLLAHPGRLVKSEETVILQCWSDVMFEAFLLHREGMFNDTLRLIGEHHDGVSKANFSISRMTQDLAGTYRCYGSVTHSPYQVSAPSDPLDIVIIGLYEKPSLSAQLGPTVLAGENVTLSCSSRSSYDMYHLSREGEAHERRLPAGPKVNGTFQADFPLGPATHGGTYRCFGSFHDSPYEWSKSSDPLLVSVTGNPSNSWPSPTEPSSKTGNPRHLHILIGTSVVIILFILLFFLLHRWCSNKKNAAVMDQESAGNRTANSEDSDEQDPQEVTYTQLNHCVFTQRKITRPSQRPKTPPTDIIVYTELPNAESRSKVVSCP
